Literature values, collected in paper PMC6589385.

Molecular target: His19 (position 19, …)
Experiment: NMR
Conditions: Membrane-bound wild-type BM2 tetrameric channel

## MLEPFQILSISSFILSALHFMAWTIGHLNQIKR [Influenza B virus M2 protein (BM2) transmembrane domain, wild type (Influenza B virus)]
  pKa: 5.1
